# From the nanobody polyreactivity screen of Harvey et al. (2022)
# Assay: yeast display, Sf9 membrane polyspecificity reagent, FACS + sequencing; frameworks hold sequencing errors
# In short: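 Nanobodies came from a synthetic yeast display library in Saccharomyces cerevisiae BJ5465, induced with galactose for 36–48 hours and stained for 1 hour at 4 °C with 10% biotinylated, detergent-solubilized Sf9 membrane reagent. Cells were enriched on streptavidin microbeads and then FACS-sorted, with low and high (top ~1%) gates set on anti-HA fluorescence for expression and streptavidin fluorescence for reagent binding. Each polyreactivity label reflects the gate a clone came from. Genes were amplified by colony PCR, sequenced by MiSeq 2 × 250 and filtered by CDR length.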
row,Sequence,polyreactivity (PSR sort gate)
1,QVQLVESGGGLVQAGGSLRLSCAASGRTFEYNAMGWYRQAPGKERELVAAISSSGGSTRYADSVKGRFTISRDNAKNTVYLQMNSLKPEDTAVYYCAKRGYTSSRRWIYDYRGQGTQVTVSS,high polyreactivity
2,QVQLVESGGGLVQAGGSLRLSCAASGFTFYRYAMGWYRQAPGKEREFVASISWSGGSTYYADSVKGRFTISRDNAKNTVYLQMNSLKPEDTAVYYCAATSQAYWDLWSTYYTYYYWGQGTQVTVSS,high polyreactivity
3,QVQLVESGGGLVQAGGSLRLSCAASGRTFYYNAMGWYRQAPGKERELVAAISGRGGSTYYADSVKGRFTISRDNAKNTVYLQMNSLKPEDTAVYYCNAVRYKYTGRFGYWGQGTQVTVSS,high polyreactivity
4,QVQLVESGGGLVQAGGSLRLSCAASGRIFEPYAMGWYRQAPGNERELVAAINSGGSTNYADSVKGRFTISRDNAKNTVYLQMNSLKPEDTAVYYCAASVYGQHAGPGRWYTFYYWGQGTQVTVSS,low polyreactivity
5,QVQLVESGGGLVQAGGSLRLSCAASGSTFSLNAIGWFRQAPGKERQLVAAITGRGTRTYYADSVKGRFTLSRDNAKNTVYLQMNSLKPEDTAVYYCAKDYPRGSPYGYNYWGQGTQVTVSS,high polyreactivity
6,QVQIVESGGGLVQAGGSLRLICAASGSIFFYYAMGWYRQAPGKEWELVAAITFTGGSTYYADSVKGSFTISRDNAKNTVYLQMTSLKPEDTAVYYCAADWYYGFEYEYRGQGTQVTVSS,high polyreactivity
7,QVQLVESGGGLVQAGGSLRLSCAASGIIFRFYAMGWYRQAPGKERELVAAIRTSGGSTYYADSVKGRFTISRDNAKNTVYLQMNSLKPEDTAGYYCAARFYNGWTKHNYWGQGTQVTVSS,high polyreactivity
8,QVQLVESGGGLVQAGGSLRLSCAASGSIFSDNAMGWYRQAPGKERELVAAISWIGDSTDYADSVKGRFTISRDNAKNTVYLQMNSLKPEDTAVYYCAGDAKVVSPRYRANDIGMYYWGQGTQVTVSS,low polyreactivity
9,QVQLVESGGGLVQAGGSLRLSSAASGNNFHFYAMGSYRQAPGKERELVATISWRGDGTYYADSVKGRFTISRDNAKNTVYLQMNSLKPEDTAVYYCAGRGVWPEYDYWGQGTQVNVSS,low polyreactivity
10,QVQLVESGGGLVQAGGSLRLSCAASGLTFVYYDMGWYRQAPGKERELVADITDGSSTNYADSVKGRFTISRDNAKNTVYLQMYSLKREDTAVYYCAVDAVFQGSLGDYEYDYWGQGTQVTVSS,low polyreactivity
11,QVQLVESGGGLVQAGGSLRLSCAASGSTFWNAMGWYRPGPGKERELVAAIRLSGGSTYYADSVKGRFTISRDNAKNTVYLQMNSLKPEDTAVYYCNADVTFGYWEYDYWGQGTQVTVSS,low polyreactivity
12,QVQLVESGGGLVQAGGTLSLSCAASGGTFSTNTMGWYRQATGKERELVAAITEGTGNTYYADSVKGRFTISRDNAKNTVYLQMNSLKPEDTAVYYCATAYAVYHVEYGYWGQGTQVTVSS,low polyreactivity
13,QVQLVESGGGLVQAGGSLRLSCAASGRTFRAYAMGWYRQAPGKETELVASISRRGGSTYYADSVKGRFTISRDNAKNTVYLQMNSLKPEDSAVYYCAASDNYLQYDYWGQGTQVTVSS,high polyreactivity
14,QVQLVESGGGLVQAGGSLRLSCAASGSTFYCYVMGWYRQAPGKERALVAAISSGGGTYYADSVKGRFTISRDNAKNTVYLQMNSLKPEDTAVYYSAADASDGQSWYEDYEYDYWGQGTQVTVSS,low polyreactivity
15,QVQLVESGGGLVQAGGSLRLSCAASGIIFRVYTMGWYRQAPGKERELVAGLSSGDSTSYADSVKGRFTISRDNAKNTVYLQMNSLKPEDTAVYYCNAVAYYSYSANFRNAYDYWGQGTQVTVSS,low polyreactivity
16,QVQLVESGGGLVQAGGSLRLSCAASGRIFGLNAMGRYRQAPGKERELVAAISERDGSTYYADSVKGRFTISRDNAKNTVYLQMNSLKPEDTAVYYCAAEKPVHYVRGVHYDYWGQGTQVTVSS,low polyreactivity
17,QVQLVESGGGLVQAGGSLRLSCAASGSILGYYAMGWYRQAPGKERELVAAISSGGSTNYADSVKGRFTISRDNAKNTVYLQMNSLKPEDTAVYYCAADRTYHGGFDYWGQGTQVTVSS,low polyreactivity
18,QVQLVESGGGLVQAGGSLRLSCAASGSIFPANAMGWYRQAPGKERELVAAISGRGGRTYYADSVKGRFTISRDNAKNTVYLQMNSLKPEDTAVYYCNKVGPLVGGVKYYYWGQGTQVTVSS,high polyreactivity
19,QVQRVESGGGLVQAGGSLRLSCAASGSIRGYAMGWYRQAPVKERELVAAISWRGGSTYYADSVKGRFTISRDNAKNTVYLQMNSLKPEDTAVYYCATKGYPHVSTWMDSWGQGTQVTVSS,low polyreactivity
20,QVQLVESGGGLVQAGGSLRLSCAPSGIIFLGYMGWYRQAPGKEREFVADITFSVDGTYYADSVKGRFTISRDNAKNTVYLQMNSLKPEDNAVYYCAAVSDLQAGTMEYWGQGTEVTVSS,high polyreactivity
21,QVQLVESGGGLVQAGGSLRLSCAASGSICYSYAMGWYRQAPWKEREFVATISDSSGSTYYADSVKGRFTISRDYATNTVYLQMNSLKPEDSAVYYCATTDSYGYYGYGYWGQGTQVTVSS,low polyreactivity

row,Sequence,polyreactivity (PSR sort gate)
1,QVQLVESGGGLVQAGGSLSLSCAASGSTFFIYTMGWYRQAPGNEREFVAAISWTGGRTYYADSEKGRFTISRDNAKNTVFLQMNSLTPEDTAVYYCAARYKYSSYDYWGQGTQVTVSS,high polyreactivity
2,QVQLVESGGGLVQAGGSLRLSCAASGLIFYYYALAWYRQAPGKERELVAAITWTAGSTSYADSVKGRFTISRDNAKNTVYLQMNRLKPEDTAVYYCAADYRHDTFSNEYDYWGQGTQVTVSS,low polyreactivity
3,QVQLVESGGGLVQAGGSLRLSCAASGSIFAFNGMGGYRPAPGKERELVAGITISDSTNYADSVKGRFTISRDNAKNTVSLQMNSLKPEVTAVYYCNADYEQYVYWYWFIKYDYWGQVTQVTVSS,low polyreactivity
4,QVQLVESGGGLVQAGGSLRLSCAASGRIYSYYAMGWYRQAPGKERELVATINSGGSTNYADSVNGRFTISRDNAKNTVYLQMKSLKPEDTAVYYCGALRDRDITVYYDTGRMYYWGQGTQVNVSS,low polyreactivity
5,QVQLVESGGGLVQAGGSLRLSCAASGSIFRTYSMGGYRQAPGKERELVATITFGGVSTYYADSVKGRFTISRDNAKNTVYLQMNSLKPEDTAVYYCAADVYTRFWRVYRFDYWGQGTQVTVSS,low polyreactivity
6,QVQLVESGGGLVQAGGSLRLSCAASGFIFSKYAMGWYRQAPGKERELVAAITRSGGRTYYADSVKGRFTISRDNAKNTVYLQMNSLKPEDSAVYYCAASWLYFGRDYWGQGTQVPVSS,high polyreactivity
7,QVQLVESGGGLVQAGGSLRLSCAASGSTFPYYAMGWYRQAPGKEREFVAAISYRGGSTYYADSVKGRFTISRDNAKNTVYLQMNSLKPEDTAVYYCAARSWQDRYANGYNYWGQGTQVTVSS,high polyreactivity
8,QVQLVESGGGLVQAGGSLRLSCDASGFIFYYYDMGWYRQAPGKERELVASIDNGGDTNYADSVKGRFTISLDNAKNTVYLQMNSLKPEDTAVYYCAAPYSPLWYPGGDYWRQGTQVTVSS,low polyreactivity
9,QVQLVESGGGLVQAGGSLRLSCAPSGYTYSDYAMGWYRQAPAKERELVAGITGGGGTYYADSVKGRFTISRDNAKNTVYLQMNSLKPEDTAVYYCAAGRRHGFGYWGQGTQVTVSS,low polyreactivity
10,QVQLVESGGGLVQEGGSLRLSCAASGRIIPSYAMGWYRQAPGKERELVAAISYSGASTYYADSVKGRFTISRDNAKNTVYLLMNCLKPEDTAVYYCATDHDSVRVLVSSTSDYDYWGQGTQVTVSS,low polyreactivity
11,QVQLVESGGGLVQAGGSLRLSCAASGSIFGDYVMGWYRQAPGKERELVAAINRGGSTYYADSVKARFTISRDNAKNTVYLQMNSLKPEDTAVYYCAAGYPSWYYGYPYDSWGQGTQVTVSS,low polyreactivity
12,QVQIVESGGGIVQAGGSLRLSCAASGIIFSGYVMGWYRQAPGKERQLVAAISSGGSKYYADSVKGRFTISRDNAKNTFYLQINSLKPEDTEVYYCAAAGYWTLGYGYWGQGTQVTVSS,low polyreactivity
13,QVQLQESAGGLVQAGGSLSLSCAASGSISRYYDMGWYRQAPGKEREFVAGISGGASTYYADSVKGRFTISRDNAKNTVYLQMNSLKPEDTAVYYCAADTGVYQYHSYWGQGTQVTVSS,low polyreactivity
14,QVQLVESGGGLVQAGGSLRLSCADSGSIFGYNAMGWYRQAPGKEREFVAAISWSGGRTYYADSVKGRFTISRDNAKNTVYLQMNSLKPEDTAVYYCAAPSRPAPRFDYWGQGTQVTVSS,low polyreactivity
15,QVQLVESGGRLVQAGGSLRLRCAASGSTIPYNAMGWYRQAPGKERELLAAITSGGSTNYADSVKGRFTISRDNAMNTVYLQMNSLKPEDTAVYYCNADSSGWFPFDYWGQGTQVTVSS,low polyreactivity
16,QVQLVESGGGLVQAGGSLRLTCAASGRTFPRYAMGWYRQAPGKERELVAAINSGGSTYYADSVKGRFTISRDNAKNSVYLQMNSLKPEDTAVYYCAAEGYTLGDGVYWIGPYDYWGQGTQLTVSS,high polyreactivity
17,QVQLVESVGGLVQAGGSLRLSCAASGSTLYQYAMGWYRQAPGKERELVAAITKSGGRTYYADSVKGRFTISRDNAKNTVYLQMNSLKPEDTAVYYCNVVRGSYSSGGDYWGQGTQVTVSS,high polyreactivity
18,QVQLVESGGGLVQAGGSLRLSCAASGRTFGRYAMGWYRQAPGKERELVARISFSGGSTHYADSVKGRFTISRDNAKNTVYLQMNSLKPEDTAVYYCNTDWYRNWGKPYYYWGQGTQVTVSS,high polyreactivity
19,QVQLVESGGGLVQAGGSLRLSCAASGLTISRYAMGWYRQAPGKERELVAAITSIGGSTYYADSVKGRFTISRDNAKNTVYLQMNSLKPVDTAVYYCACLRCLFPGRFDYWGQSTQVTVSS,high polyreactivity
20,QVQLVESGGGLVQAGGSLRLSCAASGSTFSRNAMGWYRQAPGKEREFVAAISTSGDSTYYADSVKGRFTISRDNAKNTVYLQMNSLKPEDTAVYYCADDGFWIAYQEGDYWGQGTQVTVSS,low polyreactivity
